From patent publication US12053530B2, “Plectin-1 binding antibodies and uses thereof” (ZIELBIO, INC., priority 2017, dated 2024) come the findings set out here.

This test has as its target plectin-1 (human recombinant protein) (Homo sapiens, UniProt Q15149). Nature of the test: Affinity of anti-plectin-1 antibodies (FIGS. 1A-1B). The following applies: human recombinant protein and pancreatic cell lines. It is filed as binding. From the text:
FIGS. 1A-1B show representative data for affinity and specificity of an anti-plec1 antibody on human recombinant protein (FIG. 1A) and human (YapC and L3.6pl) and mouse (Han14.3) pancreatic cell lines (FIG. 1B).

Chain of plectin-1 (human recombinant protein) (Q15149 whole entry): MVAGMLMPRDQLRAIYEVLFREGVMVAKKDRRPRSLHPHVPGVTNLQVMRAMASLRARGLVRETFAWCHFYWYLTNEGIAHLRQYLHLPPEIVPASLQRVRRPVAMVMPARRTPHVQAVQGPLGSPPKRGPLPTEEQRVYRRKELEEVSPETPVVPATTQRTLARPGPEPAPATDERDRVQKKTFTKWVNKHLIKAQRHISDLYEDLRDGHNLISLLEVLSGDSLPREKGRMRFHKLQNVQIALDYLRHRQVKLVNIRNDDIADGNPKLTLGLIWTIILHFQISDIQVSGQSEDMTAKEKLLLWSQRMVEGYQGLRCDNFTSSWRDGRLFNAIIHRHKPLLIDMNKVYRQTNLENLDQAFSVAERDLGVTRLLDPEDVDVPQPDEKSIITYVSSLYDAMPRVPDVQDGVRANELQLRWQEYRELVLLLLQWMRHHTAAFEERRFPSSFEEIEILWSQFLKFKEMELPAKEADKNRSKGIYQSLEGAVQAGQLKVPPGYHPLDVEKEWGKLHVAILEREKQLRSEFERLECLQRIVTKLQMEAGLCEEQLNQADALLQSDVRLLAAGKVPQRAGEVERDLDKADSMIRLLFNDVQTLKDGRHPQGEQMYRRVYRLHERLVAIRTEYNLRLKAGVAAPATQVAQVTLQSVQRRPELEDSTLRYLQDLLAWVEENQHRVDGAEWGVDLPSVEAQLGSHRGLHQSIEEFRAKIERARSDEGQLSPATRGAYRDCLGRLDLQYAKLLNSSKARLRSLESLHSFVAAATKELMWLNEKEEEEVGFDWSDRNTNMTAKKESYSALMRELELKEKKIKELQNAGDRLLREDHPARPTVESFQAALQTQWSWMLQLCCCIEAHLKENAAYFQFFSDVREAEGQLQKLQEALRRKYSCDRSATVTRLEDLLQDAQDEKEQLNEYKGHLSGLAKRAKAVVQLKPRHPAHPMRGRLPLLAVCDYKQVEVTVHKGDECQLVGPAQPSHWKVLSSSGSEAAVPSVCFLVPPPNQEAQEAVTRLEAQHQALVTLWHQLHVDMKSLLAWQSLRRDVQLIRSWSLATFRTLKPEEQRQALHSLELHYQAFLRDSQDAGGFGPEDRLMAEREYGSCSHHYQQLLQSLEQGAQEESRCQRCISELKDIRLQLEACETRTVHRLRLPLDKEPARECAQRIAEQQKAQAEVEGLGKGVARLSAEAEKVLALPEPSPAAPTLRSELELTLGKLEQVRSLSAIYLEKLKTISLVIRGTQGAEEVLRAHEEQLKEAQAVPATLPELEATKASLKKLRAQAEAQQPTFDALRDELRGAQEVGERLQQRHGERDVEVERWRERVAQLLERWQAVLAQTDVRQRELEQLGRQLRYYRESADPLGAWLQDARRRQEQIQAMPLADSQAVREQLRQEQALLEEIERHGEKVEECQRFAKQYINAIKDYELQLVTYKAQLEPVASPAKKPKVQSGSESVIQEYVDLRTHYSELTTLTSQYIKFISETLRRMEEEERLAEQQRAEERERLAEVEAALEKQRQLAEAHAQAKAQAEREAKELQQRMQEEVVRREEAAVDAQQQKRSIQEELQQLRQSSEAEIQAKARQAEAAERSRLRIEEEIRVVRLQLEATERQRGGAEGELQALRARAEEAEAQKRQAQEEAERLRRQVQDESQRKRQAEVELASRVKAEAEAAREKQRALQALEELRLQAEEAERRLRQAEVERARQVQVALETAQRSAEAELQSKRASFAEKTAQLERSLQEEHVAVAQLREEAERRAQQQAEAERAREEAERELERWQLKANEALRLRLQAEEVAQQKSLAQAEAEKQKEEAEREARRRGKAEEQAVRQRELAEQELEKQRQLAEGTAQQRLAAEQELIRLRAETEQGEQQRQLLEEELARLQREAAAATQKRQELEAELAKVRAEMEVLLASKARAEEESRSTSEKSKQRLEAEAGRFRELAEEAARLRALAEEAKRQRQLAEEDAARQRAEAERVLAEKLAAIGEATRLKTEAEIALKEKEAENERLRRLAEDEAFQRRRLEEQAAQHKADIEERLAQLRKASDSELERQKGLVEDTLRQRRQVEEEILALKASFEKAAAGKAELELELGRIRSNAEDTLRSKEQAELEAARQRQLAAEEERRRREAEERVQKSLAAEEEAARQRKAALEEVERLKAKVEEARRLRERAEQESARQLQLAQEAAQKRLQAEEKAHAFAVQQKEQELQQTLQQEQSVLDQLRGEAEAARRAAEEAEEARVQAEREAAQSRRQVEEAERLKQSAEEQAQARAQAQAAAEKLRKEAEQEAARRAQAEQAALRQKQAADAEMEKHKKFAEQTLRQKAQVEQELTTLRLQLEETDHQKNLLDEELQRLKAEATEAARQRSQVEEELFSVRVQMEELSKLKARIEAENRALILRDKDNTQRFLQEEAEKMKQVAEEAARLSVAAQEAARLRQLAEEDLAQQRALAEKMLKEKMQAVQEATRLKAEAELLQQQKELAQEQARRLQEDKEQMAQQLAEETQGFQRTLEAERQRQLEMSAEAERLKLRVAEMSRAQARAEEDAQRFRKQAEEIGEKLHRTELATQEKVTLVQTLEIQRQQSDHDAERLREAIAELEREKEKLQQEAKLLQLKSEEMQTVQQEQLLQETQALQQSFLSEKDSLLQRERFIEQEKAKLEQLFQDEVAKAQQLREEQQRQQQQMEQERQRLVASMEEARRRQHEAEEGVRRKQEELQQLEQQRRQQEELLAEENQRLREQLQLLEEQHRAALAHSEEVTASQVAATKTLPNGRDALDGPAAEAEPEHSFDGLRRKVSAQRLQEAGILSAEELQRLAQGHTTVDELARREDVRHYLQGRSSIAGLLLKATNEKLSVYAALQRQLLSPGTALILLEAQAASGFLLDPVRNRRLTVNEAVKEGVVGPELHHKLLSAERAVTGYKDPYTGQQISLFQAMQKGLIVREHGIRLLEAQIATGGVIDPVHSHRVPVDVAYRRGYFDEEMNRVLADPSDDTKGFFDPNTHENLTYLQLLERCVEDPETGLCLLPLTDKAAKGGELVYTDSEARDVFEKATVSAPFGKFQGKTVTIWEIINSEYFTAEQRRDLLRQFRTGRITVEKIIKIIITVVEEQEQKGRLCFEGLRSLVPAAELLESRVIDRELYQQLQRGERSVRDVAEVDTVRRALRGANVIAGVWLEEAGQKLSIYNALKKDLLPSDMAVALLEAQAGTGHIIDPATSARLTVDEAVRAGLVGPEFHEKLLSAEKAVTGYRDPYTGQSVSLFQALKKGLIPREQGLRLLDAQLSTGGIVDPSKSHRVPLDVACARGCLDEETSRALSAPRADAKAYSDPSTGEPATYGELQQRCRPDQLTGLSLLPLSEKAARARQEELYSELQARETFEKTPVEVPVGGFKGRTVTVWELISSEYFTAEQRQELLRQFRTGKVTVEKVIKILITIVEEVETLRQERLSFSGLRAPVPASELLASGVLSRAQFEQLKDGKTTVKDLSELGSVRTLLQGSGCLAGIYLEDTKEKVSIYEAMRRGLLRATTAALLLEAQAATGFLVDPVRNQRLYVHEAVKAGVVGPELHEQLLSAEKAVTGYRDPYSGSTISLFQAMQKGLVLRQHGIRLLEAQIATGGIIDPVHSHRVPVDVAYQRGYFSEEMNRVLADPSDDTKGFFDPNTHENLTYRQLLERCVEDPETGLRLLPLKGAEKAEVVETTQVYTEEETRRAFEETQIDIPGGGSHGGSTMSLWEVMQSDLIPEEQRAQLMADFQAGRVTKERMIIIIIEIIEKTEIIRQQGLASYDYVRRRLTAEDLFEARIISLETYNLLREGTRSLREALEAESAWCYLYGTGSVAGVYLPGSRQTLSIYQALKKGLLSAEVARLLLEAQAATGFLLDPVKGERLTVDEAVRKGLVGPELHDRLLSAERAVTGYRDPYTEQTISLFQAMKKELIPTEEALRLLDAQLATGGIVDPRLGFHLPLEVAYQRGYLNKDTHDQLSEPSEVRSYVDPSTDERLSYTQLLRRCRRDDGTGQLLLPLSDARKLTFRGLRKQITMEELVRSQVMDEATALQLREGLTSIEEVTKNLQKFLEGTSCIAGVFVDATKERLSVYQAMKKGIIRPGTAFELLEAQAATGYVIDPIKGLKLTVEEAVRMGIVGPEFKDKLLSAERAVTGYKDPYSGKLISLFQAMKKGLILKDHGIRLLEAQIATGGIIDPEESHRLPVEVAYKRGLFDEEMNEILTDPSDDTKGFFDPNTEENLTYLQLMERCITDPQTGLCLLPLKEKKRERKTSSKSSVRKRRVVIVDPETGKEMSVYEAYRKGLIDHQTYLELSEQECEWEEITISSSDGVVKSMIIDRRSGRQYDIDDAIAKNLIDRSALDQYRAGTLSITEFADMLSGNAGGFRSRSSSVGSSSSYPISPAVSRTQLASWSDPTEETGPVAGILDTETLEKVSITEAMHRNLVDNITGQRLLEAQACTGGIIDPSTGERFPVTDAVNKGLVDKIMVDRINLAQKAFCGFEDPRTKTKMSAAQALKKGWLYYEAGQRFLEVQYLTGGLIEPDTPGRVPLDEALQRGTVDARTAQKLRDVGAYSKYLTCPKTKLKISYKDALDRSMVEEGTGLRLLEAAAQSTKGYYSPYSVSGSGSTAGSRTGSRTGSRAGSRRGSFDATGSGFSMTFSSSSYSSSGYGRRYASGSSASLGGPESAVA

B1: Pab2: anti-plectin-1 antibody; heavy chain variable region SEQ ID NO: 23, light chain variable region SEQ ID NO: 45 (antibody, V domains shown)
VH: EVQLVESGGDLVKPGGSLKLSCAASGFTFSRYGMSWVRQTPDKRLEWVATISIGGTYTYYPDSMKGRFTISRDNAKNTLYLQMSSLKSEDTAMYYCARRGYGNYSYYGMDYWGQGTSVTVSS
VL: DIVMTQAAFSNPVTLGTSASISCRSSKSLLHSNGITYLYWYLQKPGQSPQLLIYQMSNLASGVPDRFSSSGSGTDFTLRISRVEAEDVGVYYCAQNLELPLTFGAGTKLELK
For B1, the “affinity among anti-plectin-1 antibodies tested” value is given as “highest affinity”.
